# B1: ALMB-0168 (antibody, V domains shown)
# VH: EVQLVQSGAEVKKPGASVKVSCKASGYTFTSYYMYWVRQAPGQGLEWIGGINPSNAGTNFNEKFKNRATLTVDKSTSTAYMELSSLRSEDTAVYYCTREGNPYYTMNYWGQGTLVTVSS
# VL: DVVMTQSPLSLPVTIGQPASISCKSSQSLLESDGKTYLNWLQQRPGQSPRRLIYLVSKLDSGVPDRFSGSGSGTDFTLKISRVEAEDVGVYYCWQGTHFPWTFGGGTKVEIKR
# notes: also called anti-Cx43 antibody
# Tests used:
# [1] = molecular target: T1, Cx43 hemichannels of mouse osteocytes (MLO-Y4 cells) (mouse, UniProt P23242 2-382); assay: cell ELISA on mouse osteocytes (MOL-Y4)
# T1 construct: whole, on cells; The assay target is the whole cell; also called connexin 43; GJA1
# [2] = molecular target: T2, Cx43 hemichannels of primary human osteocytes (human, UniProt P17302 2-382); assay: cell ELISA on primary human osteocytes
# T2 construct: whole, on cells; The assay target is the whole cell (primary human osteocytes); also called connexin 43; gap junction alpha-1 protein
# [3] = molecular target: T2, Cx43 hemichannels of primary human …; assay: cell-based or functional assay
# [4] = molecular target: T1, Cx43 hemichannels of mouse osteocytes …; assay: cell-based or functional assay
# T1 sequence (P23242 2-382): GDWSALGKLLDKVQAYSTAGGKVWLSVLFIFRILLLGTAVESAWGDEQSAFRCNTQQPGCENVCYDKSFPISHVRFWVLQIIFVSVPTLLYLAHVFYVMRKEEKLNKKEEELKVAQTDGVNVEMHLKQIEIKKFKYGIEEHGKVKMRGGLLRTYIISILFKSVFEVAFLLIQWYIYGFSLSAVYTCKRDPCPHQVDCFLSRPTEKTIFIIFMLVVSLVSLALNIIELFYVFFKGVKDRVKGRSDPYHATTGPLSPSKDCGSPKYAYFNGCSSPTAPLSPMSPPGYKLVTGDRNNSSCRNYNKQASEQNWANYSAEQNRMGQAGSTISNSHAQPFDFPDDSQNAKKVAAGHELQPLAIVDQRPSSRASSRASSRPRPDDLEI
# T2 sequence (P17302 2-382): as the sequence (P23242 2-382) above, with E123D, V163I, R242K, T250S, P252A, S256A, P262Q, S340N, A343S, V346L counted along it
binder,measurement,setting,value
B1,EC50,[1],37.3 µg/mL
same,EC50,[2],41 µg/mL
same,"EC50 of Cx43 hemichannel opening, EB staining, human osteocytes",[3],3.97 µg/mL
same,"EC50 of Cx43 hemichannel opening, EB staining, MOL-Y4 cells",[4],2.33 µg/mL
same,"plasma ATP level in mice, luciferin/luciferase assay, against saline-treated mice",[4],> 5 fold

# Source: US20240391987A1 (ALAMAB THERAPEUTICS, published 2024)
